Residue numbers refer to the chain shown, from its start. In names and notes the source's numbering stands.
T1: human α-CGRP (Homo sapiens, UniProt P06881)
T1 construct: 1-37 (WT); purchased; host or cells: synthetic peptide
T1 sequence (P06881 83-119 limits assumed): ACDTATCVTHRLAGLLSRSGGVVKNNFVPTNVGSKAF

T2: rat α-CGRP (Rattus norvegicus, UniProt P01256)
T2 construct: rat α (1-37); host or cells: synthetic peptide
T2 sequence (P01256 83-119 limits assumed): T1 sequence (P06881 83-119 limits assumed) with A1S, D3N, N25D, K35E

B1: M69: G1 variant: L1 R28N,T30G; L2 L56I; H2 E54K,A57N,S58E; HC-FW3 L99T,A100V (antibody, V domains shown)
VH: EVQLVESGGGLVQPGGSLRLSCAASGFTFSNYWISWVRQAPGKGLEWVAEIRSKSDNEATHYAEAVKGRFTISRDNAKNSLYLQMNSLRAEDTAVYYCTVYFDYGLAIQNYWGQGTLVTVSS
VL: EIVLTQSPATLSLSPGERATLSCKASKNVGTYVSWYQQKPGQAPRLLIYGASNRYIGIPARFSGSGSGTDFTLTISSLEPEDFAVYYCSQSYNYPYTFGQGTKLEIK
B2: M70: G1 variant: L1 R28N,T30G; L2 L56I; H2 E54K,A57S; HC-FW3 L99T,A100V (antibody, V domains shown)
VH: B1 VH with N57S, E58S
VL: B1 VL
B3: M71: G1 variant: L1 R28N,T30G; L2 L56I; H2 E54K,A57Y; HC-FW3 L99T,A100V (antibody, V domains shown)
VH: B1 VH with N57Y, E58S
VL: B1 VL
B4: M72: G1 variant: L1 R28N,T30G; L2 L56S; H2 E54K; HC-FW3 L99T,A100V (antibody, V domains shown)
VH: B1 VH with N57A, E58S
VL: B1 VL with I56S
B5: M73: G1 variant: L1 R28N,T30G; L2 L56S; H2 E54K,A57N,S58Y,E64D; HC-FW3 L99T,A100V (antibody, V domains shown)
VH: B1 VH with E58Y, E64D
VL: B1 VL with I56S
B6: M74: G1 variant: L1 R28N,T30G; L2 L56S; H2 E54K,A57S; HC-FW3 L99T,A100V (antibody, V domains shown)
VH: B1 VH with N57S, E58S
VL: B1 VL with I56S
B7: M75: G1 variant: L1 R28N,T30G; L2 L56S; H2 E54K,A57V; HC-FW3 L99T,A100V (antibody, V domains shown)
VH: B1 VH with N57V, E58S
VL: B1 VL with I56S
B8: M76: G1 variant: L1 R28N,T30S; L2 G50A,L56T; H2 A57G; HC-FW3 L99T,A100V (antibody, V domains shown)
VH: B1 VH with K54E, N57G, E58S
VL: B1 VL with G30S, G50A, I56T
B9: M77: G1 variant: L1 R28N,T30S; L2 G50A,L56T; H2 E54K,A57D; HC-FW3 L99T,A100V (antibody, V domains shown)
VH: B1 VH with N57D, E58S
VL: B1 VL with G30S, G50A, I56T
B10: M78: G1 variant: L1 R28N,T30S; L2 G50A,L56T; H2 E54K,A57N,S58T; HC-FW3 L99T,A100V (antibody, V domains shown)
VH: B1 VH with E58T
VL: B1 VL with G30S, G50A, I56T
B11: M79: G1 variant: L1 R28N,T30S; L2 G50A,L56T; H2 E54K,A57P; HC-FW3 L99T,A100V (antibody, V domains shown)
VH: B1 VH with N57P, E58S
VL: B1 VL with G30S, G50A, I56T
B12: M80: G1 variant: L1 R28N,T30S; L2 L56I; H2 E54K,A57N,S58V; HC-FW3 L99T,A100V (antibody, V domains shown)
VH: B1 VH with E58V
VL: B1 VL with G30S
B13: M81: G1 variant: L1 R28N,T30S; L2 L56S; H2 E54K,A57N,S58E; HC-FW3 L99T,A100V (antibody, V domains shown)
VH: B1 VH
VL: B1 VL with G30S, I56S
B14: M82: G1 variant: L1 R28N,T30V; L2 A51H,L56T; H2 A57N; HC-FW3 L991 (printed),A100V (antibody, V domains shown)
VH: B1 VH with K54E, E58S
VL: B1 VL with G30V, A51H, I56T
B15: M83: G1 variant: L1 R28N,T30V; L2 A51H,L56T; H2 E54K,A57N,S58M,H61F; HC-FW3 L991 (printed),A100V (antibody, V domains shown)
VH: B1 VH with E58M, H61F
VL: B1 VL with G30V, A51H, I56T
B16: M84: G1 variant: L1 R28N,T30V; L2 A51H,L56T; H2 E54N,A57N; HC-FW3 L991 (printed),A100V (antibody, V domains shown)
VH: B1 VH with K54N, E58S
VL: B1 VL with G30V, A51H, I56T
B17: M20: G1 variant: L1 R28W; HC-FW3 L99R,A100L (antibody, V domains shown)
VH: B1 VH with K54E, N57A, E58S, T99R, V100L
VL: B1 VL with N28W, G30T, I56L
B18: M21: G1 variant: L1 R28W; HC-FW3 L99S (antibody, V domains shown)
VH: B1 VH with K54E, N57A, E58S, T99S, V100A
VL: B1 VL with N28W, G30T, I56L
B19: M22: G1 variant: L1 R28W; HC-FW3 L99T (antibody, V domains shown)
VH: B1 VH with K54E, N57A, E58S, V100A
VL: B1 VL with N28W, G30T, I56L
B20: M23: G1 variant: L1 R28G; HC-FW3 L99T,A100V (antibody, V domains shown)
VH: B1 VH with K54E, N57A, E58S
VL: B1 VL with N28G, G30T, I56L
B21: M24: G1 variant: L1 R28L; HC-FW3 L99T,A100V (antibody, V domains shown)
VH: B1 VH with K54E, N57A, E58S
VL: B1 VL with N28L, G30T, I56L
B22: M25: G1 variant: L1 R28N; HC-FW3 L99T,A100V (antibody, V domains shown)
VH: B1 VH with K54E, N57A, E58S
VL: B1 VL with G30T, I56L
B23: M26: G1 variant: L1 R28N; H2 A57G; HC-FW3 L99T,A100V (antibody, V domains shown)
VH: B1 VH with K54E, N57G, E58S
VL: B1 VL with G30T, I56L

Molecular target: T1, human α-CGRP
Experiment: Biacore affinity of antibody G1 Fab and variants to human α-CGRP
Assay type: binding
Settings: 37° C., Fab, screening mode unless underlined
Protocol: (§1) Biacore assay for affinity determination. […] All Biacore assays were conducted in HBS-EP running buffer (10 mM HEPES pH 7.4, 150 mM NaCl, 3 mM EDTA, 0.005% v/v polysorbate P20). CGRP surfaces were prepared by diluting the N-biotinylated CGRP to a concentration of less than 0.001 mg/mL into HBS-EP buffer and injecting it across the SA sensor chip using variable contact times. Low capacity surfaces, corresponding to capture levels <50 response units (RU) were used for high-resolution kinetic studies, whereas high capacity surfaces (about 800 RU of captured CGRP) were used for concentration studies, screening, and solution affinity determinations. […] Samples were typically injected for lminute at 100 μL/min and dissociation times of at least 10 minutes were allowed. After each binding cycle, surfaces were regenerated with 25 mM NaOH in 25% v/v ethanol, which was tolerated over hundreds of cycles. An entire titration series (typically generated in duplicate) was fit globally to a 1:1 Langmuir binding model using the BlAevaluation program. This returned a unique pair of association and dissociation kinetic rate constants (respectively, kon and koff) for each binding interaction, whose ratio gave the equilibrium dissociation constant (KD=koff/[…]).
(§2) High-resolution analysis of binding interactions with extremely slow offrates. […] The protocol described above was used with the following modifications. The association rate constant (kon) was determined by injecting a 2-fold titration series (in duplicate) spanning 550 nM-1 nM for 30 seconds at 100 μL/min and allowing only a 30 second dissociation phase. The dissociation rate constant (koff) was determined by injecting three concentrations (high, medium, and low) of the same titration series in duplicate for 30 seconds and allowing a 2-hour dissociation phase. The affinity (KD) of each interaction was obtained by combining the kon and koff values obtained in both types of experiments, as shown in Table 4.
(§3) The binding affinities of Fab fragments were determined by Biacore by flowing them across CGRPs on a SA chip.

B1 and B2 are within 1.5-fold of each other in α-human koff: 0.000733 s⁻¹ for the first, 0.000559 s⁻¹ for the second.

Going from B3 to B4, the α-human koff falls from 0.00128 s⁻¹ to 0.0004 s⁻¹ (3.2-fold).

Compared with B5, B6 is 2.3-fold higher in α-human koff: 0.000255 s⁻¹ for the first, 0.000597 s⁻¹ for the second.

First: B7
Second: B8
The α-human koff of the first is 3.2-fold higher: 0.00116 s⁻¹ for the first, 0.000364 s⁻¹ for the second.

Compared with B9, B10 is 2.7-fold higher in α-human koff: 0.000477 s⁻¹ for the first, 0.00131 s⁻¹ for the second.

Compared with B11, B12 is 1.6-fold higher in α-human koff: 0.00129 s⁻¹ for the first, 0.00209 s⁻¹ for the second.

Compared with B13, B14 is 1.8-fold higher in α-human koff: 0.00049 s⁻¹ for the first, 0.000877 s⁻¹ for the second.

B15 and B16 are within 1.5-fold of each other in α-human koff: 0.000933 s⁻¹ for the first, 0.00108 s⁻¹ for the second.

B17 and B18 are within 1.5-fold of each other in α-human koff: 0.000136 s⁻¹ for the first, 0.000142 s⁻¹ for the second.

B19 and B20 are within 1.5-fold of each other in α-human koff: 0.000116 s⁻¹ for the first, 0.00013 s⁻¹ for the second.

B21 and B22 are within 1.5-fold of each other in α-human koff: 0.000148 s⁻¹ for the first, 0.00014 s⁻¹ for the second.

B23 gave a α-human koff of 0.000148 s⁻¹.

Molecular target: T2, rat α-CGRP
Experiment: Biacore affinity of antibody G1 Fab and variants to rat α-CGRP
Assay type: binding
Settings: 37° C., Fab, screening mode unless underlined
Protocol: as §1, §2, §3

First: B1
Second: B2
The α-rat koff of the first is 3.4-fold lower: 0.00181 s⁻¹ for the first, 0.00607 s⁻¹ for the second.

First: B3
Second: B4
The α-rat koff of the first is 1.9-fold lower: 0.00212 s⁻¹ for the first, 0.00395 s⁻¹ for the second.

Going from B5 to B6, the α-rat koff rises from 0.003 s⁻¹ to 0.00603 s⁻¹ (2-fold).

Going from B7 to B8, the α-rat koff falls from 0.0187 s⁻¹ to 0.00116 s⁻¹ (16-fold).

First: B9
Second: B10
The α-rat koff of the first is 12-fold lower: 0.0143 s⁻¹ for the first, 0.167 s⁻¹ for the second.

Compared with B11, B12 is 1.9-fold lower in α-rat koff: 0.19 s⁻¹ for the first, 0.0993 s⁻¹ for the second.

Going from B13 to B14, the α-rat koff rises from 0.00429 s⁻¹ to 0.00699 s⁻¹ (1.6-fold).

Going from B16 to B17, the α-rat koff falls from 0.0176 s⁻¹ to 0.00144 s⁻¹ (12-fold).

Compared with B18, B19 is 1.6-fold higher in α-rat koff: 0.000695 s⁻¹ for the first, 0.0011 s⁻¹ for the second.

B20 and B21 are within 1.5-fold of each other in α-rat koff: 0.000799 s⁻¹ for the first, 0.00104 s⁻¹ for the second.

Going from B22 to B23, the α-rat koff falls from 0.0014 s⁻¹ to 0.000924 s⁻¹ (1.5-fold).

With B15 the α-rat koff was “No binding”.
